Reference: patent publication US20210330740A1 (RUN X, published 2021)

Molecular target: T1, BRD2 (Bromodomain-containing protein 2) (UniProt P25440 1-801, limits assumed)
T1 construct: also called Brd2 protein
Experiment: co-immunoprecipitation and immunoblotting, time course
Method: Particularly, the antibody targeting RUNX3 (5G4) (Cat #ab40278) was obtained from Abcam (Cambridge, UK), and the antibody was diluted 1:3000. BRD2 (M01; 1:1000; Cat #H00006046-M01, Abnova, Taipei City, Taiwan) was used for immunoblotting and immunoprecipitation. Transient transfection was performed in all cell lines using lipofectamine plus reagent and lipofectamine (Invitrogen). Cell lysates were incubated with an appropriate monoclonal or polyclonal antibody (2 μg of antibody/500 μg of lysate sample) at 4° C. for 3 hours, followed by incubation with protein G-Sepharose beads (Amersham Pharmacia Biotech, Piscataway, N.J., USA). For the detection of endogenous proteins at 4° C. for 1 hour, the lysate was incubated with an appropriate monoclonal or polyclonal antibody (1:1000˜1:3000) at 4° C. for 6 to 12 hours, and then protein G-Sepharose beads (Amersham Pharmacia Biotech) were […] at 4° C. for 3 hours. The immune precipitate was digested on SDS-polyacrylamide gel electrophoresis (SDS-PAGE) gel and transferred to a PVDF membrane (Millipore, Billerica, Mass., USA). The membrane was blocked, immunoblotted with an appropriate antibody, treated with ECL solution (Amersham Pharmacia Biotech), and visualized in Amersham™ Imager 600 (GE Healthcare, Chicago, Ill., USA).

T1 sequence (P25440 whole entry): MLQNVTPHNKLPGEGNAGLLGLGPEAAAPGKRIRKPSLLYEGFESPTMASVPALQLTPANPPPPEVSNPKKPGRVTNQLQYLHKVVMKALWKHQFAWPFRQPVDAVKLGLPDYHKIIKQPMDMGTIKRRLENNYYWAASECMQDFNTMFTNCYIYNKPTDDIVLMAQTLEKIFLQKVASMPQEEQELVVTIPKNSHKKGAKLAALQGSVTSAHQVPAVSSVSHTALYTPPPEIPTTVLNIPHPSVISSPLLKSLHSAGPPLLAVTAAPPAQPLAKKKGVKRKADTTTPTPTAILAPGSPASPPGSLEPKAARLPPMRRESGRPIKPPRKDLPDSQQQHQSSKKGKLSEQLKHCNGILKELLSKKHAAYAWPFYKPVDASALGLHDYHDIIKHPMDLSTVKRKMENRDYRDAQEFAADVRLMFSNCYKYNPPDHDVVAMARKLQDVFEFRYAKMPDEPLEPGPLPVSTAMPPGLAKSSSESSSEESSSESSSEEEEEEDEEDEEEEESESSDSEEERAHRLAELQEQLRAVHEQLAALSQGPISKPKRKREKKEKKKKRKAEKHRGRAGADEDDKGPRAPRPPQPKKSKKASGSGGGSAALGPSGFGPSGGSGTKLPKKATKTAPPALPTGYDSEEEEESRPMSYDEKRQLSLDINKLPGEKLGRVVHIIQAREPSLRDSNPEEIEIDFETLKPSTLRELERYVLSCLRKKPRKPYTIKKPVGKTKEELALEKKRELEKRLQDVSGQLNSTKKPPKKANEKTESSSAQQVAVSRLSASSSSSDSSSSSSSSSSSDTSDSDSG

B1: modified protein in which the 356th serine of Runx3 is substituted with alanine (other, UniProt Q13761 1-415, looked up)
chain: MRIPVDPSTSRRFTPPSPAFPCGGGGGKMGENSGALSAQAAVGPGGRARPEVRSMVDVLADHAGELVRTDSPNFLCSVLPSHWRCNKTLPVAFKVVALGDVPDGTVVTVMAGNDENYSAELRNASAVMKNQVARFNDLRFVGRSGRGKSFTLTITVFTNPTQVATYHRAIKVTVDGPREPRRHRQKLEDQTKPFPDRFGDLERLRMRVTPSTPSPRGSLSTTSHFSSQPQTPIQGTSELNPFSDPRQFDRSFPTLPTLTESRFPDPRMHYPGAMSAAFPYSATPSGTSISSLSVAGMPATSRFHHTYLPPPYPGAPQNQSGPFQANPSPYHLYYGTSSGSYQFSMVAGSSSGGDRAPTRMLASCTSSAASVAAGNLMNPSLGGQSDGVEADGSHSNSPTALSTPGRMDEAVWRPY
notes: also called Runx3 S356A; RUNX3 S356A
- complex maintenance activity, fold against wild-type Runx3: ≥ 10 times
